Experimental findings from the Human Domainome abundance scans (Beltran et al. 2025) are described below.

± gives the uncertainty stated by the source.

Sequences and labels used below:
B1: POU domain, class 4, transcription factor 3, residues 185 to 256; numbered along this chain, Q15319 (parent)
chain: RELEAFAERFKQRRIKLGVTQADVGAALANLKIPGVGSLSQSTICRFESLTLSHNNMIALKPVLQAWLEEAE

Variants of B1 are the subject of the data set. Kind of data set: abundance fitness (aPCA) (normalised: wild type 0, dead -1); higher = more abundant; growth selection in yeast, the domain comes from the species named. The conditions noted are these: Homo sapiens.
Regarding RELEAFAERFKQRRIKLGVTQADVGAALANLKIPGVGSLSQSTICRFECLTLSHNNMIALKPVLQAWLEEAE [S49C], the abundance fitness is -0.127 ± 0.12.

As for RELEAFAERFKQRRIKLGVTQADVGAALANLKIPGVGSLSQSTICRFEDLTLSHNNMIALKPVLQAWLEEAE [S49D], the abundance fitness came to 0.067 ± 0.071.

With RELEAFAERFKQRRIKLGVTQADVGAALANLKIPGVGSLSQSTICRFEPLTLSHNNMIALKPVLQAWLEEAE [S49P], the abundance fitness was -0.957 ± 0.14.

For the variant RELEAFAERFKQRRIKNGVTQADVGAALANLKIPGVGSLSQSTICRFESLTLSHNNMIALKPVLQAWLEEAE [L17N], the abundance fitness was -0.474 ± 0.47.

RELEAFAERFKQRRIKQGVTQADVGAALANLKIPGVGSLSQSTICRFESLTLSHNNMIALKPVLQAWLEEAE [L17Q]: the abundance fitness is -0.983 ± 0.34.

In the case of RELEAFAERFKQRRIGLGVTQADVGAALANLKIPGVGSLSQSTICRFESLTLSHNNMIALKPVLQAWLEEAE [K16G], the abundance fitness was -0.129 ± 0.042.

As for RELEAFAERFKQARIKLGVTQADVGAALANLKIPGVGSLSQSTICRFESLTLSHNNMIALKPVLQAWLEEAE [R13A], the abundance fitness was -0.01 ± 0.055.

RELEAFAERFKQRRIKLGVTQADVGAALANLKIPGVGSLSQSTICRFESLTLSHNNMIALKPVLQAPLEEAE [W67P]: the abundance fitness was -0.618 ± 0.1.

With RELEAFAERFKQRRIKLGVTQADVGAALANLKIPGVGSLSQSTICRFESLTLSHNNMIALKPVLQAWLVEAE [E69V], the abundance fitness was -0.046 ± 0.037.

With RELEAFAERFKQRRIKLGVTQADVGAALANLKIPGVGSWSQSTICRFESLTLSHNNMIALKPVLQAWLEEAE [L39W], the abundance fitness is -0.596 ± 0.37.

In the case of RELEAFAERFKQRRIKLGVTQADVGAALANLKIPGVGSASQSTICRFESLTLSHNNMIALKPVLQAWLEEAE [L39A], the abundance fitness was -0.053 ± 0.15.

With RELEAFAERFKQRRIKLGVTQADVGAALANLKKPGVGSLSQSTICRFESLTLSHNNMIALKPVLQAWLEEAE [I33K], the abundance fitness is -0.391 ± 0.11.

For the variant RELGAFAERFKQRRIKLGVTQADVGAALANLKIPGVGSLSQSTICRFESLTLSHNNMIALKPVLQAWLEEAE [E4G], the abundance fitness is -0.197 ± 0.033.

With RELLAFAERFKQRRIKLGVTQADVGAALANLKIPGVGSLSQSTICRFESLTLSHNNMIALKPVLQAWLEEAE [E4L], the abundance fitness is -0.214 ± 0.064.

On to RELEAFAERFKQRRIKLGVTQADVGAALANLKIPGVGSLSQSTICRFESLTLSHNNMIALKPVLQAWLEFAE [E70F], for which the abundance fitness was -0.397 ± 0.043.

Consider RELEAFAERFKQRRIKLGVTQADVGAALANLKIPGVGSLSQSTICRFESLTLSHNNMIALKPVLQAWLEGAE [E70G], for which the abundance fitness was -0.095 ± 0.039.

For the variant RELEAFAERFKQRRIKLGVTQADVGAALANLKIPGVGSLSQSTICYFESLTLSHNNMIALKPVLQAWLEEAE [R46Y], the abundance fitness is -0.106 ± 0.18.

Consider RELEAFAERFKQRRIKLGVTQADVGAALANLKIPGVGSLSQSTICQFESLTLSHNNMIALKPVLQAWLEEAE [R46Q], for which the abundance fitness was -0.011 ± 0.077.

On to RELEAFAERFKQRRIKLGVTQADVGAALANLKIPGVGSLSQSTICRFESLTLSHNNMIALKPGLQAWLEEAE [V63G], for which the abundance fitness was -0.545 ± 0.06.

As to RELEAFAERFKQRRIKLGVTQADVGAALANLKIPGVGSLSQSTICRFESLTLSHNNMIALKPDLQAWLEEAE [V63D], the abundance fitness is -0.585 ± 0.27.

For the variant RELEAFAERFKQRRIKLGVTQADVGAALANLKIPGVGSLSQSTICRFESLTLSHNNMIALKPVLQAWQEEAE [L68Q], the abundance fitness was -0.497 ± 0.047.

As to RELEAFAERFKQRRIKLGVTQADVGAALANLKIPGVGSLSQSTICRFESLTLSHNNMIALKPVLQAWFEEAE [L68F], the abundance fitness is -0.585 ± 0.067.

In the case of RELEAFAERFKQRRIKLGVTQADVGCALANLKIPGVGSLSQSTICRFESLTLSHNNMIALKPVLQAWLEEAE [A26C], the abundance fitness was -0.08 ± 0.04.

Turning to RELEAFAERFKQRRIKLGVTQADVGMALANLKIPGVGSLSQSTICRFESLTLSHNNMIALKPVLQAWLEEAE [A26M], the abundance fitness is -0.095 ± 0.035.

For RELEAFAERFKQRRIKLGVTQADVGAALANLKIPGVGSLSQSTICRFESLTLAHNNMIALKPVLQAWLEEAE [S53A], the abundance fitness amounted to 0.025 ± 0.071.

Consider RELEAFAERFKQRRIKLTVTQADVGAALANLKIPGVGSLSQSTICRFESLTLSHNNMIALKPVLQAWLEEAE [G18T], for which the abundance fitness was -0.884 ± 0.2.

For the variant RELEAFAERFKQRSIKLGVTQADVGAALANLKIPGVGSLSQSTICRFESLTLSHNNMIALKPVLQAWLEEAE [R14S], the abundance fitness is -1.06 ± 0.12.

Turning to RELEAFAERFKQRRIKLGVTQADVGAALAQLKIPGVGSLSQSTICRFESLTLSHNNMIALKPVLQAWLEEAE [N30Q], the abundance fitness was -0.022 ± 0.099.

On to REQEAFAERFKQRRIKLGVTQADVGAALANLKIPGVGSLSQSTICRFESLTLSHNNMIALKPVLQAWLEEAE [L3Q], for which the abundance fitness was -0.227 ± 0.13.

Take RELEAFAERFLQRRIKLGVTQADVGAALANLKIPGVGSLSQSTICRFESLTLSHNNMIALKPVLQAWLEEAE [K11L]: the abundance fitness was -0.449 ± 0.037.

For the variant RELEAFAERFKQRRIKLGVTQADVGAALANLKIPGVGSLSQSTICRFESLTLSHNNMIALKPVLQAWLEEAA [E72A], the abundance fitness was -0.31 ± 0.03.

In the case of RELEAFAERFKQRRIKLGVTQADVGAALANLKIPGVGSLSQSTICRFESLTLSHNNMIALKPVLQAWLEEAT [E72T], the abundance fitness was -0.219 ± 0.043.

For RELEAFAERFKQRRIKLGVTQADVGAKLANLKIPGVGSLSQSTICRFESLTLSHNNMIALKPVLQAWLEEAE [A27K], the abundance fitness is -0.126 ± 0.11.

RELEAFAERFKQRRIKLGVTQADVGAFLANLKIPGVGSLSQSTICRFESLTLSHNNMIALKPVLQAWLEEAE [A27F]: the abundance fitness was -0.283 ± 0.11.

In the case of RELEAFAARFKQRRIKLGVTQADVGAALANLKIPGVGSLSQSTICRFESLTLSHNNMIALKPVLQAWLEEAE [E8A], the abundance fitness is 0.022 ± 0.081.

Consider RELEAFAERFKQRRIKLGVTQADVGAALANLKIPGVGSLSQSGICRFESLTLSHNNMIALKPVLQAWLEEAE [T43G], for which the abundance fitness was -0.65 ± 0.088.

Regarding RELEAFAERFKQRRIKLGVTQADVGAALANLKIPGVGSLSQSTICRFESLTLSHNNMIALKKVLQAWLEEAE [P62K], the abundance fitness is -0.177 ± 0.052.
